Source: paper PMC8927147, “Global profiling of regulatory elements in the histone benzoylation pathway” (Nature Communications, 2022)
Blank lines part the entries; values can stand above or below the binder they belong to. Ends that are not written are not given here. * marks the point of attachment. Bz = O=C(c1ccccc1)*

Tests used:
Test in all cases: crystal structure; protein (15 mg/ml) mixed with peptide at 1:5 molar ratio; sitting-drop vapor diffusion at 25 °C
Details in all cases: both partners purified
Sas5_(YEATS) = target: T1, Sas5_(YEATS) (S. cerevisiae, UniProt Q99314 2-139)
T1 construct: also called YEATS domain of Sas5; source: E. coli Rosetta, purified (Ni-NTA, on-bead ULP1 digestion, SEC); not shown: 6*His-Sumo, N-terminal, cleaved
T1 sequence (looked up): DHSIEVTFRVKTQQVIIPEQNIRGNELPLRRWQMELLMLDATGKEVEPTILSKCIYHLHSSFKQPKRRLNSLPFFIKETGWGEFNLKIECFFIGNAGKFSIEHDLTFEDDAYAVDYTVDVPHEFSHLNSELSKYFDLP

Taf14_(YEATS) = target: T2, Taf14_(YEATS) (S. cerevisiae, UniProt P35189 2-137)
T2 construct: Taf14, S. cerevisiae, YEATS domain, residues 2-137; also called Taf14_(2-137); YEATS domain of Taf14; source: E. coli Rosetta, purified (Ni-NTA, on-bead ULP1 digestion, SEC); not shown: 6*His-Sumo, N-terminal, cleaved
T2 sequence (looked up): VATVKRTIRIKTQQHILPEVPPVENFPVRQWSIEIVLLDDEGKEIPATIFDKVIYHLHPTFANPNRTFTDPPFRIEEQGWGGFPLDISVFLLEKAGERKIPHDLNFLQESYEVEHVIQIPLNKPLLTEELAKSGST

Hst2_(8-294) = target: T3, Hst2_(8-294) (S. cerevisiae, UniProt P53686 8-294)
T3 construct: Construct of the crystal structures; source: E. coli Rosetta, purified (Ni-NTA, on-bead ULP1 digestion, SEC); not shown: 6*His-Sumo, N-terminal, cleaved
T3 sequence (P53686 8-294): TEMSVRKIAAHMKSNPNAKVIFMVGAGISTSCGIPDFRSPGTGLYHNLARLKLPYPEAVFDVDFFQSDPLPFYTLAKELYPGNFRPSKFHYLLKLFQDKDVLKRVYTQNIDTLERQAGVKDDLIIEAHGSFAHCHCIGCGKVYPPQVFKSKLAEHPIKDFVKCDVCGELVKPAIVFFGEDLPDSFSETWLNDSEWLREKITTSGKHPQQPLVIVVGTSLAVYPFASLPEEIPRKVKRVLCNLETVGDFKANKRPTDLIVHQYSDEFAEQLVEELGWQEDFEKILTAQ

Sth1BD = target: T4, Sth1BD (S. cerevisiae, UniProt P32597 1248-1359)
T4 construct: also called Bromodomain from Sth1; source: E. coli Rosetta, purified (Ni-NTA, on-bead ULP1 digestion, SEC); not shown: 6*His-Sumo, N-terminal, cleaved
T4 sequence (looked up): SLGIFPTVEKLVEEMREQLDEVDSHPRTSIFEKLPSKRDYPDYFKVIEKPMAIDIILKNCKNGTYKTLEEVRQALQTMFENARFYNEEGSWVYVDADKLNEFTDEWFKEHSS

- binding result (Sas5_(YEATS)): binds
B1: H3_(18-37)K27bz (peptide)
peptide: KQLASKAARK(Bz)SAPSTGGVKY
notes: histone H3, residues K18 to K36; extra tyrosine residue (Y37) at the C-terminus designed for concentration determination by UV spectrometry; source: synthetic peptide

- binding result (Taf14_(YEATS)): binds
B2: H3_(5-13)K9bz (peptide)
peptide: Ac-QTARK(Bz)STGG
notes: histone H3, residues 5-13; Peptide crystallised with Taf14_(2-137); also called H3K9bz (Ac-QTARKbzSTGG); source: synthetic peptide

- binding result (Hst2_(8-294)): binds
B3: H3_(5-14)K9bz (peptide)
peptide: QTARK(Bz)STGGK
notes: histone H3, residues 5-14; also called benzoylated H3 peptide; source: synthetic peptide

- binding result (Sth1BD): binds
B4: H3K14bz(TARKSTGGKbzAPRKQLASY) (peptide)
peptide: TARKSTGGK(Bz)APRKQLASY
notes: histone H3, residues 6-22; C-terminal tyrosine (Y23) that is not in H3 at this position; also called H3K14bz peptide of the Sth1BD crystal; source: synthetic peptide
